Three substances from paper PMC9812585 can be followed below.

Assay [1] addresses human GC-A (membrane guanylate cyclase A, natriuretic peptide receptor) (human) (UniProt P16066).
Assay [2] concerns the target human GC-B (membrane guanylate cyclase B, natriuretic peptide receptor) (human) (UniProt P20594).
The target is the same in assay [3]. The source holds these as a separate data set.
Assay [4] deals with human GC-A (membrane guanylate cyclase A, natriuretic peptide receptor) (human) (UniProt P16066). The source holds these as a separate data set.

Chain of UniProt P20594 (P20594 23-1047): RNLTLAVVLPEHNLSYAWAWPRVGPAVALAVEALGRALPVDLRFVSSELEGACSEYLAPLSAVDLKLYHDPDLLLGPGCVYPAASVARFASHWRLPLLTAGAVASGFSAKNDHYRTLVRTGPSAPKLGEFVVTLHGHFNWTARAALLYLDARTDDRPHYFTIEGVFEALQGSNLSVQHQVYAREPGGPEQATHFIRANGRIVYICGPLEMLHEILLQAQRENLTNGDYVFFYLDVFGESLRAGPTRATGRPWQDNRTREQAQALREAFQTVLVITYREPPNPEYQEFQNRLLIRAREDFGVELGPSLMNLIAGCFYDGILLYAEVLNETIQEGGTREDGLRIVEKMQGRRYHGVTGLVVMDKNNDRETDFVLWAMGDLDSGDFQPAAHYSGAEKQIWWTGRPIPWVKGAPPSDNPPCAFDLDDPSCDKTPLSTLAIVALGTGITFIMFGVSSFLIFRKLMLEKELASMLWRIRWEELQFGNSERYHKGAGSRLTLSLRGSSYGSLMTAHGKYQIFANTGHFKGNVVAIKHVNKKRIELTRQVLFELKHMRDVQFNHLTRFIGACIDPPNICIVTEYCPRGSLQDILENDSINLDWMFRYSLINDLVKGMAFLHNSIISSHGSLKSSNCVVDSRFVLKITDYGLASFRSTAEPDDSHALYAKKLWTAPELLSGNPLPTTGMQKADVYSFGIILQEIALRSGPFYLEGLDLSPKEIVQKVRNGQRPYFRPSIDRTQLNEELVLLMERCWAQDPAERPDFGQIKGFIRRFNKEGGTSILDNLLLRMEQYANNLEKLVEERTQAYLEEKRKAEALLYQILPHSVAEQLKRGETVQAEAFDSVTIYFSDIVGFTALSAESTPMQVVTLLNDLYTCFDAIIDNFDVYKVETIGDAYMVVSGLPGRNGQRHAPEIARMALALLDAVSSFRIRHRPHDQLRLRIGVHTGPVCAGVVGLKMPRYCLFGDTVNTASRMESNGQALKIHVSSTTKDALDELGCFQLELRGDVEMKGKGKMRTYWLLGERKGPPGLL
Chain of UniProt P16066 (P16066 33-1061): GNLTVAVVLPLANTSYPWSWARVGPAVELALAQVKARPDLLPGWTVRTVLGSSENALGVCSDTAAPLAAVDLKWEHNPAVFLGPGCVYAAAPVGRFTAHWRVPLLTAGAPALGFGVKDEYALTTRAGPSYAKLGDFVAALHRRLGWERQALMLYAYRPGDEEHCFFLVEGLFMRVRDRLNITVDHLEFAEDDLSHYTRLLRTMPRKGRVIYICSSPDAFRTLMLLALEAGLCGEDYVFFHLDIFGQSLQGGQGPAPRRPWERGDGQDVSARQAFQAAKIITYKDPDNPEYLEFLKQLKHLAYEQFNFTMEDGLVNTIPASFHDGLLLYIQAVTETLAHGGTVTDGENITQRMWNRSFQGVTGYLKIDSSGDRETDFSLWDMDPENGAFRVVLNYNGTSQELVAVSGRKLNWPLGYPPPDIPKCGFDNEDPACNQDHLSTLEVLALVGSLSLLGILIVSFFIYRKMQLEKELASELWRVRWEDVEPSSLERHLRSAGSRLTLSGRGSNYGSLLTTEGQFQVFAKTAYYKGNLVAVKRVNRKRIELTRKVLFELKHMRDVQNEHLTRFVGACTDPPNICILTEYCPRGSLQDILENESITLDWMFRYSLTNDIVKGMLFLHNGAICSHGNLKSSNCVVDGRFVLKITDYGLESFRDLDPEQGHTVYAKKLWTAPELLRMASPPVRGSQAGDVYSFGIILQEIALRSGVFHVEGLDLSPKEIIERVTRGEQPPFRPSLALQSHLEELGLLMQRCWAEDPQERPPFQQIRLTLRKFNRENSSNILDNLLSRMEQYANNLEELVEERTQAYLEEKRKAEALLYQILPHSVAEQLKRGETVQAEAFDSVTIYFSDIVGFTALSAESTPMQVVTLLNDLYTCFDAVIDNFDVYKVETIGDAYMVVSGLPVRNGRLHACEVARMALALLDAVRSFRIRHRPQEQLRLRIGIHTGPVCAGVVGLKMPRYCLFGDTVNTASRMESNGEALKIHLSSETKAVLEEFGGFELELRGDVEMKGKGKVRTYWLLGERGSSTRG

The substance “human atrial natriuretic factor (1-28) (peptide)” registered a stimulation of cGMP production in HEK293T cell membranes with increasing ANP, saturation above 4 μM in assay [1] of 10 fold. In assay [2], human c-type natriuretic peptide (1-53) gave a stimulation of cGMP production in HEK293T cell membranes with increasing CNP, saturation above 4 μM of 10 fold.

“retinal degeneration protein 3 (RD3) (from UniProt Q7Z3Z2 1-195) (natural protein)”: in assay [3], the IC50 of inhibition of guanylate cyclase activity (cGMP synthesis) of GC-B in HEK293T cell membranes activated by 2 μM CNP, increasing RD3; inhibition not complete at 0.5-1 μM RD3 turned out to be 29 nM. Also, the IC50 of inhibition of guanylate cyclase activity (cGMP synthesis) of GC-A in HEK293T cell membranes activated by 2 μM ANP, increasing RD3; inhibition not complete at 0.5-1 μM RD3 in assay [4] worked out at 24 nM.
